Results as given in publication PMC5779224, “Autoinhibition of ankyrin-B/G membrane target bindings by intrinsically disordered segments from the tail regions” (eLife, 2017).

T1: AnkG 38–855 (AnkG MBD-AI-c protein; MBD + partial AI-c) (rat, UniProt O70511-1 38-855)
T1 construct: numbers count on: rat AnkG NM_001033984.1 (MBD-UPA); also called AnkG WT; source: E. coli BL21 (DE3), purified (Ni2+-NTA, size exclusion)
T1 sequence (looked up): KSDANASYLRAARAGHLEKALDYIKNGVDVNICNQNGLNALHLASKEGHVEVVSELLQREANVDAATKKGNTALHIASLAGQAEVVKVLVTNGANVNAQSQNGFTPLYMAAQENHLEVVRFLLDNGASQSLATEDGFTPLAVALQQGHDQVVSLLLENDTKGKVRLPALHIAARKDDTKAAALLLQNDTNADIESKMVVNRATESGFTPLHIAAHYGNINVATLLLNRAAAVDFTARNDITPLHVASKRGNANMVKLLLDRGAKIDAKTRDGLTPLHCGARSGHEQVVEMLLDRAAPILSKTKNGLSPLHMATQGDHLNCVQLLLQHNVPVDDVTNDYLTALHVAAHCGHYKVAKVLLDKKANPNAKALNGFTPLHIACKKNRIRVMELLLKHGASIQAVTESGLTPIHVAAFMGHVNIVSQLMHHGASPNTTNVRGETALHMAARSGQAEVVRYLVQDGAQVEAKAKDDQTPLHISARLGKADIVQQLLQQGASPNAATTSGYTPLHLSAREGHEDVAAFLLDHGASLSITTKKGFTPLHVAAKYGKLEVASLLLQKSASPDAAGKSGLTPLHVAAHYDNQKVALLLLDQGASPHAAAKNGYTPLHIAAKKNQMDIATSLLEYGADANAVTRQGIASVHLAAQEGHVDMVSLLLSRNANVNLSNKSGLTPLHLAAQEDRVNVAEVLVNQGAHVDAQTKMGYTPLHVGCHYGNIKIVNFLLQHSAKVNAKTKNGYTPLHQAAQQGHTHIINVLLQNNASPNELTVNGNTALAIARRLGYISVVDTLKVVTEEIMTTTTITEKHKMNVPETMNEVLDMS

T2: AnkG 38–903 (MBD + AI-c + AI-b) (rat, UniProt O70511-1 38-903)
T2 construct: numbers count on: rat AnkG NM_001033984.1 (MBD-UPA); also called extended AnkG MBD; source: E. coli BL21 (DE3), purified (Ni2+-NTA, size exclusion)
T2 sequence (looked up): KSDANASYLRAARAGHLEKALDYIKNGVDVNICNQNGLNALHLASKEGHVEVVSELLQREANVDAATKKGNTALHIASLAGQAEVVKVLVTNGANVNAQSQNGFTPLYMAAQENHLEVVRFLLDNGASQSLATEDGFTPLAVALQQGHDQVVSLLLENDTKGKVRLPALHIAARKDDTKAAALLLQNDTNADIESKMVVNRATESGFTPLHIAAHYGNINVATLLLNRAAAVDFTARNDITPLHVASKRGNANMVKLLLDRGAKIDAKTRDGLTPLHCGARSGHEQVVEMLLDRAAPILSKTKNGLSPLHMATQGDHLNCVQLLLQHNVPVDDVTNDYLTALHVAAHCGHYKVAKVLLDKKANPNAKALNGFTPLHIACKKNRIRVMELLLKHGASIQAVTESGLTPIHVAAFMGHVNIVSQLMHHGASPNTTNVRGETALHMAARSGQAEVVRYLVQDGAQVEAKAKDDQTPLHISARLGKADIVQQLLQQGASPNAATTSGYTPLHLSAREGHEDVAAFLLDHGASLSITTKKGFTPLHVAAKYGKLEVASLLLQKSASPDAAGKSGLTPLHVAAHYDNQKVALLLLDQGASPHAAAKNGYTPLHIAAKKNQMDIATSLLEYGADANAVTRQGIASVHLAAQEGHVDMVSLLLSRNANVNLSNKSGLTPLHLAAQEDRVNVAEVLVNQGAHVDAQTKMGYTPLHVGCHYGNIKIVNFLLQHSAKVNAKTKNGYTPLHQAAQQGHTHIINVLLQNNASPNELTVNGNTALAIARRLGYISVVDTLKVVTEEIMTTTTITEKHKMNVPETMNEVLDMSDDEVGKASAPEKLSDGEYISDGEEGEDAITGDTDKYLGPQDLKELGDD

T3: AnkB 28–847 (MBD + partial AI-c) (human, UniProt Q01484-2 28-847)
T3 construct: ankyrin-B (AnkB), human 220 kDa isoform, residues 28-847: MBD and a short 20-residue linker; numbers count on: human 220 kDa AnkB NM_020977.3; also called extended MBD with a short 20-residue linker; source: E. coli BL21 (DE3), purified (Ni2+-NTA, size exclusion)
T3 sequence (looked up): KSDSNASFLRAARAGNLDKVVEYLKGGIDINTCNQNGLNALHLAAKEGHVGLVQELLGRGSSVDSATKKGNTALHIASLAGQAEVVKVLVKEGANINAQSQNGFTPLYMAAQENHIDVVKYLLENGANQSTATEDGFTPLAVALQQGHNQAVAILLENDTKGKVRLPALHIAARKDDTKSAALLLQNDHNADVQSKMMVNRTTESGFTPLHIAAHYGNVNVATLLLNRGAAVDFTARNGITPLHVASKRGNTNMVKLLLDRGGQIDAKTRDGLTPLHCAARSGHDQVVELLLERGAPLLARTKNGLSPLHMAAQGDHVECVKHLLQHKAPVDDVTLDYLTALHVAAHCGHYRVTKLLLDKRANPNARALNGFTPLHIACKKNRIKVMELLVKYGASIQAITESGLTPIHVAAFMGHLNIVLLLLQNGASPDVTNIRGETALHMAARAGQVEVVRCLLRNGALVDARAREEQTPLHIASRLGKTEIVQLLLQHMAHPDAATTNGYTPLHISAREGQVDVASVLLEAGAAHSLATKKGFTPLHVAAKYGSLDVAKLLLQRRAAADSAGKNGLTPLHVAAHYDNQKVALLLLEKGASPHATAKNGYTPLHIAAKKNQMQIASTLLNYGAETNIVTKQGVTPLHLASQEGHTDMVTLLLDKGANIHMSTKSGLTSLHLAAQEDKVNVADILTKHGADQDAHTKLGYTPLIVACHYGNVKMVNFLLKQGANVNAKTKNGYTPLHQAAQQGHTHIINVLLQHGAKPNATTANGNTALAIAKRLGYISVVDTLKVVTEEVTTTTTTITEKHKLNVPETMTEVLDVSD

T4: AnkB_MBD (AnkB ANK repeats only, aa 28–827) (human, UniProt Q01484-2 28-827)
T4 construct: ankyrin-B (AnkB), human 220 kDa isoform, residues 28-827: the 24 ANK repeats (MBD), no linker; numbers count on: human 220 kDa AnkB NM_020977.3; Poor quality in 100 mM NaCl buffer; also called AnkB 28–827; source: E. coli BL21 (DE3), purified (Ni2+-NTA, size exclusion)
T4 sequence (looked up): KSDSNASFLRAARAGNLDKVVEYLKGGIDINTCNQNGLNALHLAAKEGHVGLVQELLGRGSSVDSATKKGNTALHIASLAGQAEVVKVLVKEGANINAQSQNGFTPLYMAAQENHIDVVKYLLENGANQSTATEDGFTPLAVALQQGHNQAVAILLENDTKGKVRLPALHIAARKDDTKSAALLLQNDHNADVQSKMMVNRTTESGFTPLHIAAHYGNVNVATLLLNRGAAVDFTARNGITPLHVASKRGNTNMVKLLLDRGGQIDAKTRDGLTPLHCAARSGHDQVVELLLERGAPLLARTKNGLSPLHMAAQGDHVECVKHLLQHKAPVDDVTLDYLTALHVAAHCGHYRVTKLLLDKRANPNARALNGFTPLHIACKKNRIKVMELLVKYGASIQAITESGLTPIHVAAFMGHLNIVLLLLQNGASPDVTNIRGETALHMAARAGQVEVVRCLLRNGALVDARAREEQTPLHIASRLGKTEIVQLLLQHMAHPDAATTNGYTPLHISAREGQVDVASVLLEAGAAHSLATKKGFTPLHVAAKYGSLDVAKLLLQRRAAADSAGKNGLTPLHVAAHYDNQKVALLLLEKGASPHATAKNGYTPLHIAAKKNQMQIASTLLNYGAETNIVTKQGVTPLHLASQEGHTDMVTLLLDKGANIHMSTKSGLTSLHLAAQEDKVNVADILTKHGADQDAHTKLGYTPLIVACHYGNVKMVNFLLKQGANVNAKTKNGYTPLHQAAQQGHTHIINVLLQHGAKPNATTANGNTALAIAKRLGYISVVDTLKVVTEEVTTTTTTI


Legend:
Conditions in all cases: both partners purified
[1] = target: T1, AnkG 38–855 (AnkG MBD-AI-c protein; MBD …); experiment: ITC; VP-ITC MicroCal, 25 °C; proteins in 50 mM Tris-HCl pH 7.8, 1 mM DTT, 1 mM EDTA with 100 mM or 500 mM NaCl as required; who was titrated is not told
[2] = target: T2, AnkG 38–903 (MBD + AI-c + AI-b); experiment: as above
[3] = target: T3, AnkB 28–847 (MBD + partial AI-c); experiment: as above
[4] = target: T4, AnkB_MBD (AnkB ANK repeats only, aa …); experiment: ITC; VP-ITC MicroCal, 25 °C; buffer containing 500 mM NaCl, due to poor quality of AnkB 28-827 in 100 mM NaCl buffer
[5] = target: T4, AnkB_MBD (AnkB ANK repeats only, aa …); experiment: ITC; VP-ITC MicroCal, 25 °C; proteins in 50 mM Tris-HCl pH 7.8, 1 mM DTT, 1 mM EDTA with 100 mM or 500 mM NaCl as required; who was titrated is not told

Binder | binding result [1] | binding result [5] | also measured
E-cadherin (aa 734–884) (domain or fragment, source: E. coli BL21 (DE3), purified (Ni2+-NTA, size exclusion)) not shown | binds | – | binding result [2]: binds; binding result [3]: binds
AnkB entire linker (aa 828–965) (domain or fragment, human, UniProt Q01484-2 828-965, looked up, numbers count on: human 220 kDa AnkB NM_020977.3; also called Linker (contains AI-c + AI-b); AnkB linker region; source: E. coli BL21 (DE3), purified (Ni2+-NTA, size exclusion)) TEKHKLNVPETMTEVLDVSDEEGDDTMTGDGGEYLRPEDLKELGDDSLPSSQFLDGMNYLRYSLEGGRSDSLRSFSSDRSHTLSHASYLRDSAVMDDSVVIPSHQVSTLAKEAERNSYRLSWGTENLDNVALSSSPIH | – | – | Kd [3]: ~4200 nM; Kd [4]: ~44 nM
TEKHKLNVPETQTEVLDVSDEEGDD (domain or fragment, human, UniProt Q01484-2 828-852, looked up, numbers count on: human 220 kDa AnkB NM_020977.3; source: E. coli BL21 (DE3), purified (Ni2+-NTA, size exclusion)) [AnkB_AI-c Met839Gln] | – | binds | –

Further lines, with some results ahead:

binding result [1] | binding result [5] | Binder | also measured
binds | – | AnkG long linker (aa 837–920; AI-c + AI-b) (domain or fragment, rat, UniProt O70511-1 837-920, looked up, numbers count on: rat AnkG NM_001033984.1 (MBD-UPA); source: E. coli BL21 (DE3), purified (Ni2+-NTA, size exclusion)) TEKHKMNVPETMNEVLDMSDDEVGKASAPEKLSDGEYISDGEEGEDAITGDTDKYLGPQDLKELGDDSLPAEGYVGFSLGARSA | –
– | binds | TEKHKLKVPETMTEVLDVSDEEGDD (domain or fragment, human, UniProt Q01484-2 828-852, looked up, numbers count on: human 220 kDa AnkB NM_020977.3; source: E. coli BL21 (DE3), purified (Ni2+-NTA, size exclusion)) [AnkB_AI-c Asn834Lys] | –
– | binds | TEKHKLNVPETMTEVQDVSDEEGDD (domain or fragment, human, UniProt Q01484-2 828-852, looked up, numbers count on: human 220 kDa AnkB NM_020977.3; source: E. coli BL21 (DE3), purified (Ni2+-NTA, size exclusion)) [AnkB_AI-c Leu843Gln] | –
